Measurements: US20150064134A1
Blank lines part the entries; values can stand above or below the substance they belong to.

Assays:
Experiment in all cases: cell-based or functional assay
CK1γ2(h) (human) = CK1γ2(h) (human) (UniProt P78368)
PAK3(h) (human) = PAK3(h) (human) (UniProt O75914)
CK1γ3(h) (human) = CK1γ3(h) (human) (UniProt Q9Y6M4)
PAK6(h) (human) = PAK6(h) (human) (UniProt Q9NQU5)
CK2α2(h) (human) = CK2α2(h) (human) (UniProt P19784)
Tie2(R849W)(h) (human) = Tie2(R849W)(h) (human) (UniProt Q02763)
Tie2(R849W)(h) (human), sequence (Q02763 771-1124 R849W limits assumed): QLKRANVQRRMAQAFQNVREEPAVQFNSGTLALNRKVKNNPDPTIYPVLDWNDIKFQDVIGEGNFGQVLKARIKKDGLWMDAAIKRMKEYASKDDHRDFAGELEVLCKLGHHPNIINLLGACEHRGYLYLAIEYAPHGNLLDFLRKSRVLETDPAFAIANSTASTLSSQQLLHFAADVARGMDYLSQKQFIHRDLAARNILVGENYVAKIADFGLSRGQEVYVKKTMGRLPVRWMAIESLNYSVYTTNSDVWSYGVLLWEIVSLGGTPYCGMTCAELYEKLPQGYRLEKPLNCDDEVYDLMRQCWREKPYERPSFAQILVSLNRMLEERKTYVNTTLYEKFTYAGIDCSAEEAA

MAPK1(h) (human) = MAPK1(h) (human) (UniProt P28482)
MAPK1(h) (human), sequence (P28482 whole entry): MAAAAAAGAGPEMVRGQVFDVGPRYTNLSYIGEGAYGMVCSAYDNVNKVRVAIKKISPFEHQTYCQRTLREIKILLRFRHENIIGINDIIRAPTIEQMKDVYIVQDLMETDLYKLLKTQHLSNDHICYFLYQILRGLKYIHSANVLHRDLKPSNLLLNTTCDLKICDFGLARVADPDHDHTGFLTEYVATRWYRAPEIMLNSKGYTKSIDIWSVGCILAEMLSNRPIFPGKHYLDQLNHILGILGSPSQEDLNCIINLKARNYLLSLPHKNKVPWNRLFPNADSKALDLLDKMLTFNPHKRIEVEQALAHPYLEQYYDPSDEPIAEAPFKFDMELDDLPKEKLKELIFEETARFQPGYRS

IGF-1R(h) (human) = IGF-1R(h) (human) (UniProt P08069)
IGF-1R(h) (human), sequence (P08069 959-1367 limits assumed): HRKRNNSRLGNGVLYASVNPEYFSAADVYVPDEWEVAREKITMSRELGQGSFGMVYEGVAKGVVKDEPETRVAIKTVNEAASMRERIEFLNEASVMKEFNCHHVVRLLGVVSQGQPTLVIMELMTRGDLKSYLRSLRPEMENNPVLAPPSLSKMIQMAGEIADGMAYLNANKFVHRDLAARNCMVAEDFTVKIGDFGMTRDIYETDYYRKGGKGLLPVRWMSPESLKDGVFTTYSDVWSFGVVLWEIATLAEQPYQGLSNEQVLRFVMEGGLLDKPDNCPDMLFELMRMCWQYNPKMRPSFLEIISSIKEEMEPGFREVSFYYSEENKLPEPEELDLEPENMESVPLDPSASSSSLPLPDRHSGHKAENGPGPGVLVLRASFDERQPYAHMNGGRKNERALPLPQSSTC

PAR-1Bα(h) (human) = PAR-1Bα(h) (human) (UniProt Q7KZI7)
c-RAF(h) (human) = c-RAF(h) (human) (UniProt P04049)

PAK3(h) (human), sequence (O75914 other isoform, or with tags, fused parts or gaps limits assumed): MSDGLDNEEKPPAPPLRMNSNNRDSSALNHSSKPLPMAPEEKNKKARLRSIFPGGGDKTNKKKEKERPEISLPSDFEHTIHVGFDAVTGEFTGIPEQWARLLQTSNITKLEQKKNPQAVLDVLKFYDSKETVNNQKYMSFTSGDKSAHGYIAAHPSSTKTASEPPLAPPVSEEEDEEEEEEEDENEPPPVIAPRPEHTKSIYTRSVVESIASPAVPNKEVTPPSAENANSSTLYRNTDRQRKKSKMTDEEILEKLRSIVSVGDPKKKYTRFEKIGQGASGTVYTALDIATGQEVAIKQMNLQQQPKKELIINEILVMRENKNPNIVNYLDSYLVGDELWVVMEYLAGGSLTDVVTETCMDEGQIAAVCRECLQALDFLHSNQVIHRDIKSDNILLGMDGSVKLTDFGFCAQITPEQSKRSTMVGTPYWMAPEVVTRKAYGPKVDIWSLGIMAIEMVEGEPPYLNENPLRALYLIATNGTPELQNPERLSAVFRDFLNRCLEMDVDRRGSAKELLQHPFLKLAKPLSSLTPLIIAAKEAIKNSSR

- % activity at 100 µM (CK1γ2(h) (human)): 123%
- % activity at 100 µM (PAK3(h) (human)): 140%
- % activity at 100 µM (CK1γ3(h) (human)): 125%
Substance: MMI-0300 (peptide)

- % activity at 100 µM (PAK6(h) (human)): 100%
- % activity at 100 µM (CK2α2(h) (human)): 96%
- % activity at 100 µM (Tie2(R849W)(h) (human)): 108%
- % activity at 100 µM (MAPK1(h) (human)): 100%
- % activity at 100 µM (IGF-1R(h) (human)): 90%
Substance: MMI-0400 (peptide)

- % activity at 100 µM (PAR-1Bα(h) (human)): 97%
- % activity at 100 µM (c-RAF(h) (human)): 19%
Substance: MMI-0500 (peptide)
